Source: patent publication US12331073B2, “Preparation of biologically active complexes” (priority 2017, dated 2025)

Columns and labels:
tumour cells = test: Inherent tumoricidal effect of oleate salts
[1] = tested on: Human lung carcinoma cells (A549, ATCC); test: Cell death assay (ATPlite, PrestoBlue, trypan blue exclusion); type: cell-based
Protocol: Human lung carcinoma cells (A549, ATCC) were cultured in RPMI-1640 with non-essential amino acids (1:100), 1 mM sodium pyruvate, 50 μg/ml Gentamicin and 5-10% fetal calf serum (FCS) at 37° C., 5% CO2. For cell death experiment, cells were grown on 96-well plate (2×10^4/well, Tecan Group Ltd) overnight. Cells were incubated with biologically active complexes obtained in Example 1 at dosages equivalent to either 7, 21 or 35 μM peptide in serum-free RPMI-1640 at 37° C. FCS was added after 1 hour. Cell death was quantified 3 hours after peptide-oleate treatment by three biochemical methods including 1) estimation of cellular ATP levels using luminescence based ATPlite™ kit (Perkin Elmer) 2) Presto Blue fluorescence staining (Invitrogen, A13262) and 3) trypan blue exclusion assay. Fluorescence and luminescence were measured using a microplate reader (Infinite F200, Tecan).

skin papillomas = conditions: topical administration, placebo controlled clinical study; cited from earlier work
tumor cells = conditions: early in vitro experiments; cited from earlier work
glioblastoma xenograft = conditions: rat glioblastoma xenograft model; cited from earlier work
bladder cancer [2] = conditions: murine bladder cancer model; cited from earlier work
bladder cancer [3] = conditions: local instillations; cited from earlier work
cells = conditions: Vukojevic et al. Langmuir 2010; cited from earlier work

CCCCCCCC/C=C\CCCCCCCC(=O)[O-].[Na+] [sodium oleate]
inherent tumoricidal effect (tumour cells): appear to have some inherent tumoricidal effect

B1: BAMLET: bovine alpha-lactalbumin (700 μM) and sodium oleate (3.5 mM) dissolved in Phosphate Buffered Saline by vortexing (protein, UniProt P00711 20-142, looked up)
Alpha-lactalbumin: EQLTKCEVFRELKDLKGYGGVSLPEWVCTTFHTSGYDTQAIVQNNDSTEYGLFQINNKIWCKDDQNPHSSNICNISCDKFLDDDLTDDIMCVKKILDKVGINYWLAHKALCSEKLDQWLCEKL
modifications: complex with sodium oleate
notes: bovine alpha-lactalbumin (700 μM) and sodium oleate (3.5 mM) dissolved in Phosphate Buffered Saline by vortexing
activity after lyophilisation of the complex ([1]; after lyophilisation): removed the activity | tumour cell death activity of freshly prepared solution ([1]; solution in PBS vortexed at room temperature, FIG. 4): biologically active and killed A549 lung carcinoma cells in a dose dependent manner

B2: HAMLET (protein, UniProt P00709 20-142, looked up)
Alpha-lactalbumin: KQFTKCELSQLLKDIDGYGGIALPELICTMFHTSGYDTQAIVENNESTEYGLFQISNKLWCKSSQVPQSRNICDISCDKFLDDDITDDIMCAKKILDIKGIDYWLAHKALCTEKLEQWLCEKL
modifications: complex with oleic acid
effect on skin papillomas (skin papillomas): removed or reduced the size of skin papillomas | anti-tumor activity in vitro (tumor cells): broad anti-tumor activity with a high degree of tumor selectivity | cell death in healthy brain tissue (glioblastoma xenograft): without evidence of cell death in healthy brain tissue | tumor progression and survival (glioblastoma xenograft): delayed tumor progression and led to increased survival | therapeutic efficacy in bladder cancer (bladder cancer [2]): Therapeutic efficacy | tumor cell death in bladder cancer patients (bladder cancer [3]): caused rapid death of tumor cells but not of healthy tissue surrounding the tumor

B3: complexes using equine lysozyme and oleic acid: complexes using equine lysozyme and oleic acid (Vukojevic et al.) (protein, UniProt P11376 1-129, looked up)
Lysozyme C, milk isozyme: KVFSKCELAHKLKAQEMDGFGGYSLANWVCMAEYESNFNTRAFNGKNANGSSDYGLFQLNNKWWCKDNKRSSSNACNIMCSKLLDENIDDDISCAKRVVRDPKGMSAWKAWVKHCKDKDLSEYLASCNL
modifications: complex with oleic acid
cell death (cells): found to produce cell death
